This is an account of results in paper PMC5724754 (Cell reports, 2015).

For this test, the target named is CSN3 (human (endogenous in HEK293, HEK293T …, UniProt Q9UNS2 1-423)). The test is described as follows: co-IP.
Sequence of CSN3 (human (Q9UNS2 whole entry): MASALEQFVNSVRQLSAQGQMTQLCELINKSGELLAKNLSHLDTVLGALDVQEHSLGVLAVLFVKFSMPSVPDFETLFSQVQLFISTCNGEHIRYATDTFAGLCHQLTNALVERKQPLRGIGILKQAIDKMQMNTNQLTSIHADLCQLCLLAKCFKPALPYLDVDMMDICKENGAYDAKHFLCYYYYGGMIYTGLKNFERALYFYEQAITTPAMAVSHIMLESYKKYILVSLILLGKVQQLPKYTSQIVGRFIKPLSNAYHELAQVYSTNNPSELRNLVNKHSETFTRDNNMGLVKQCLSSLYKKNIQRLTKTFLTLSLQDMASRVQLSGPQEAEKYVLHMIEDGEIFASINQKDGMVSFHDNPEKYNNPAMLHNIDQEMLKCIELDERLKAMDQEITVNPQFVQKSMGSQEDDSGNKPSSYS

B1: CSNAP (CSN Acidic Protein) (natural protein)
chain: MKPAVDEMFPEGAGPYVDLDEAGGSTGLLMDLAANEKAVHADFFNDFEDLFDDDDIQ
As to B1, the binding result is reported as “binds”.
